Source: the supplement of paper PMC7125110
± gives the standard error. For some of these results: Variants at the floor of the assay were thinned out.

B1: glmS ribozyme (parent)
chain: AUAAAAGCGCCAGAACUACAGAAAUGUAGUUGACGAGGAGGAGGUUUAUCGAAUUUUCGGCGGAUGCCUCCAAA

What was measured:
Details in all cases: with glucosamine-6-phosphate
glucosamine-6-phosphate [1] = variants of: B1; assay: kcat; higher = faster cleavage; RNA array
How it was run: (§1)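 On sequenced MiSeq chips, barcoded ribozyme variants were made in situ by E. coli RNA polymerase and followed at 37 °C through a hybridised Cy3 probe. Glucosamine-6-phosphate was flowed in at 40 μM to 10 mM in HEPES/KCl/Mg(OAc)2 buffer. Exponential fits to normalised per-tile medians gave kobs, and weighted Michaelis–Menten fits gave kcat and KM.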

glucosamine-6-phosphate [2] = variants of: B1; assay: self-cleavage kobs at 160 uM GlcN6P; higher = faster cleavage; RNA array
How it was run: as §1

glucosamine-6-phosphate [3] = variants of: B1; assay: self-cleavage kobs at 640 uM GlcN6P; higher = faster cleavage; RNA array
How it was run: as §1

glucosamine-6-phosphate [4] = variants of: B1; assay: self-cleavage kobs at 2500 uM GlcN6P; higher = faster cleavage; RNA array
How it was run: as §1

glucosamine-6-phosphate [5] = variants of: B1; assay: self-cleavage kobs at 10000 uM GlcN6P; higher = faster cleavage; RNA array
How it was run: as §1

glucosamine-6-phosphate [6] = variants of: B1; assay: KM; higher = weaker cofactor use; RNA array
How it was run: as §1

glucosamine-6-phosphate [7] = variants of: B1; assay: self-cleavage kobs at 40 uM GlcN6P; higher = faster cleavage; RNA array
How it was run: as §1

| Variant | kcat (glucosamine-6-phosphate [1]) [s⁻¹] | self-cleavage kobs at 160 uM GlcN6P (glucosamine-6-phosphate [2]) [s⁻¹] | self-cleavage kobs at 640 uM GlcN6P (glucosamine-6-phosphate [3]) [s⁻¹] | self-cleavage kobs at 2500 uM GlcN6P (glucosamine-6-phosphate [4]) [s⁻¹] | self-cleavage kobs at 10000 uM GlcN6P (glucosamine-6-phosphate [5]) [s⁻¹] | KM (glucosamine-6-phosphate [6]) [µM] | self-cleavage kobs at 40 uM GlcN6P (glucosamine-6-phosphate [7]) [s⁻¹] |
| --- | --- | --- | --- | --- | --- | --- | --- |
| AUAAAAGCGCCAGAACUACAGAAAUGUAGUUGACGAGGAGGAGGUUUAUCGAGUUUUCGGCGGAUGCGUCCAAA [A53G C68G] | 0.000144 ± 2.6e-05 | 5.82e-05 ± 1e-05 | 8.52e-05 ± 9.4e-06 | 0.00014 ± 1.5e-05 |  |  |  |
| AUAAAAGCGCCAGAACUACAGAAAUGUAGUUGACGAGGAGGAGGUUUAUCGAGUUUUCGGCGGAUGCAUCCAAA [A53G C68A] | 5.55e-05 ± 7.9e-06 | 5.86e-05 ± 1.5e-05 | 6.08e-05 ± 1.2e-05 | 6.36e-05 ± 1e-05 | 4.54e-05 ± 7.8e-06 |  |  |
| AUAAAAGCGCCAGAACUACAGAAAUGUAGUUGACGAGGAGGAGGUUUAUCGAGUUUUCGGCGGAAGACUCCAAA [A53G U65A C67A] | 0.000109 ± 1.9e-05 | 8.41e-05 ± 2.3e-05 | 0.000153 ± 3.7e-05 | 0.000112 ± 2.9e-05 | 9.28e-05 ± 2.4e-05 |  |  |
| AUAAAAGCGCCAGAACUACAGAAAUGUAGUUGACGAGGAGGAGGUUUAUCGAGUUUUCGGCGGAAGCCUCCAAA [A53G U65A] | 0.00318 ± 0.00053 | 0.000257 ± 5e-05 | 0.00114 ± 0.00019 | 0.00184 ± 0.00046 | 0.00272 ± 0.00056 | 1530 ± 350 | 8.56e-05 ± 1.5e-05 |
| AUAAAAGCGCCAGAACUACAGAAAUGUAGUUGACGAGGAGGAGGUUUAUCGAGUUUUCGGCGGAUGUCUCCAAA [A53G C67U] | 0.0134 ± 0.0047 | 0.000969 ± 0.00016 | 0.00617 ± 0.0011 | 0.0175 ± 0.0045 | 0.0111 ± 0.0015 | 1400 ± 680 | 0.000512 ± 6.3e-05 |
| AUAAAAGCGCCAGAACUACAGAAAUGUAGUUGACGAGGAGGAGGUUUAUCGAGUUUUCGGCGGAUGCCUCAAAA [A53G C71A] | 0.00448 ± 0.002 | 0.00085 ± 0.00013 | 0.00169 ± 0.00037 | 0.00297 ± 0.0007 | 0.00857 ± 0.0012 |  | 0.000374 ± 4.3e-05 |
| AUAAAAGCGCCAGAACUACAGAAAUGUAGUUGACGAGGAGGAGGUUUAUCGAGUUUUCGGCGGAUGCCUACAAA [A53G C70A] | 0.000194 ± 2e-05 | 0.000132 ± 1.6e-05 | 0.000188 ± 2.3e-05 | 0.000183 ± 2.6e-05 |  | 63.2 ± 16 | 7.6e-05 ± 7e-06 |
| AUAAAAGCGCCAGAACUACAGAAAUGUAGUUGACGAGGAGGAGGUUUAUCGAGUUUUCGGCGGAUGCCUCCAAA [A53G] | 0.0676 ± 0.0095 | 0.00441 ± 0.0003 | 0.015 ± 0.00053 | 0.0341 ± 0.0017 | 0.0639 ± 0.0029 | 2010 ± 330 | 0.00137 ± 2.6e-05 |
| AUAAAAGCGCCAGAACUACAGAAAUGUAGUUGACGAGGAGGAGGUUUAUCGAGUUGUCGGCGGAUGCCUCCAAA [A53G U56G] | 0.0121 ± 0.004 | 0.00116 ± 0.00024 | 0.00411 ± 0.00066 | 0.00635 ± 0.0012 | 0.0161 ± 0.0025 | 1150 ± 530 | 0.000497 ± 5.8e-05 |
| AUAAAAGCGCCAGAACUACAGAAAUGUAGUUGACGAGGAGGAGGUUUAUCGAGUUCUCGGCGGAUGCCUCCAAA [A53G U56C] | 0.00882 ± 0.0023 | 0.000447 ± 0.00011 | 0.00135 ± 0.00025 | 0.00428 ± 0.001 | 0.0073 ± 0.0011 | 2730 ± 950 | 0.000169 ± 2.5e-05 |
| AUAAAAGCGCCAGAACUACAGAAAUGUAGUUGACGAGGAGGAGGUUUAUCGAGUUUUGGGCGGAUGCCUCCAAA [A53G C58G] | 0.000112 ± 2.4e-06 |  | 3.28e-05 ± 1.1e-05 | 6.79e-05 ± 1.2e-05 | 9.67e-05 ± 9.9e-06 | 1580 ± 120 |  |
| AUAAAAGCGCCAGAACUACAGAAAUGUAGUUGACGAGGAGGAGGUUUAUCGAGUUUUCGGCGGAUCCCUCCAAA [A53G G66C] | 0.000985 ± 5.6e-05 | 0.000121 ± 5e-05 |  | 0.000619 ± 0.00014 | 0.000909 ± 0.00017 | 1230 ± 190 |  |
| AUAAAAGCGCCAGAACUACAGAAAUGUAGUUGACGAGGAGGAGGUUUAUCGACUUUUCGGCGGAUGCCACCAAA [A53C U69A] | 0.000135 ± 1.3e-05 |  | 6.52e-05 ± 1.2e-05 | 0.000124 ± 2.1e-05 | 0.000118 ± 1.8e-05 | 683 ± 200 |  |
